Square brackets hold non-standard residues; d marks the D form. Side chains are listed from the residue outwards. Ends that are not written are not given here. * marks the point of attachment. Palmitoyl = CCCCCCCCCCCCCCCC(=O)*; Myristoyl = CCCCCCCCCCCCCC(=O)*; Lauroyl = CCCCCCCCCCCC(=O)*; Decanoyl = CCCCCCCCCC(=O)*; Nle = CCCC[C@H](N)C(=O)O; Octanoyl = CCCCCCCC(=O)*; GABA = NCCCC(=O)O

Assay [1] has as its target T1, rat PrRP receptor in RC-4B/C cells (rat, UniProt Q64121 1-370).
T1 construct: whole, on cells; endogenous receptor of RC-4B/C cells (ATCC); also called rat receptor; GPR10 receptor expressed in rat hypophyseal cells
T1 sequence (looked up): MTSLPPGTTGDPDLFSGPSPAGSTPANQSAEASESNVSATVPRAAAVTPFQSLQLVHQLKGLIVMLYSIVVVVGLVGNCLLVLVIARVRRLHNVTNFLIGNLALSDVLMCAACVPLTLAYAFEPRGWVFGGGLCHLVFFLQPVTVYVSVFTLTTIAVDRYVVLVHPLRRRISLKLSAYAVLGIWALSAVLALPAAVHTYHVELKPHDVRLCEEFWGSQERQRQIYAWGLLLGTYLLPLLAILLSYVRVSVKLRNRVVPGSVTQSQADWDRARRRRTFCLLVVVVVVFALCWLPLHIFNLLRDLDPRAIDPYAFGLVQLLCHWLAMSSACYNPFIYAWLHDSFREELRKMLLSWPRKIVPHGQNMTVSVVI
The assay can be described thus: competition with 125I-rat PrRP31, RC-4B/C cells. The procedure, abridged: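 Incubation 60 min at room temperature; cells solubilized in 0.1 mol/l NaOH and bound radioactivity γ-counted. Run in duplicate, repeated at least three times.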

In assay [2] the target is T2, human PrRP receptor GPR10 (human, UniProt P49683 1-370).
T2 construct: whole, on cells; also called GPR10 human receptor transfected in CHO cells; human GPR10 receptor
T2 sequence (looked up): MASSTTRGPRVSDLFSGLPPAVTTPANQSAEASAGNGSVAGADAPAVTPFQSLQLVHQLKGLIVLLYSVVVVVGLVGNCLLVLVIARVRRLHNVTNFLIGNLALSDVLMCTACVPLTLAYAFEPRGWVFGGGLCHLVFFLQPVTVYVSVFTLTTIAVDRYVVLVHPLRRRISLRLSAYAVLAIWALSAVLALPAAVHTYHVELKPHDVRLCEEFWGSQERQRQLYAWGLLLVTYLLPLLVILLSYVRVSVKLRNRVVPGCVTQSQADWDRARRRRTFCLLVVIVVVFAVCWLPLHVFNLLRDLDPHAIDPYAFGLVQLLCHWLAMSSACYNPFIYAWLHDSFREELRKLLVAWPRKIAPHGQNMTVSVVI
The assay can be described thus: competition with 125I-human PrRP31, CHO cells with human GPR10.

B1: analog no. 35 (peptide)
peptide: [Nle]ETRTPDINPAWYTGRGIRPVGRF-NH2
modifications: N-terminus assumed
SMILES: CCCC[C@H](N)C(=O)N[C@@H](CCC(=O)O)C(=O)N[C@H](C(=O)N[C@@H](CCCNC(=N)N)C(=O)N[C@H](C(=O)N1CCC[C@H]1C(=O)N[C@@H](CC(=O)O)C(=O)N[C@H](C(=O)N[C@@H](CC(N)=O)C(=O)N1CCC[C@H]1C(=O)N[C@@H](C)C(=O)N[C@@H](Cc1c[nH]c2ccccc12)C(=O)N[C@@H](Cc1ccc(O)cc1)C(=O)N[C@H](C(=O)NCC(=O)N[C@@H](CCCNC(=N)N)C(=O)NCC(=O)N[C@H](C(=O)N[C@@H](CCCNC(=N)N)C(=O)N1CCC[C@H]1C(=O)N[C@H](C(=O)NCC(=O)N[C@@H](CCCNC(=N)N)C(=O)N[C@@H](Cc1ccccc1)C(N)=O)C(C)C)[C@@H](C)CC)[C@@H](C)O)[C@@H](C)CC)[C@@H](C)O)[C@@H](C)O
notes: shortened PrRP31 analog; also called 35 short
Turning to B1, in assay [1], the “% of PrRP31” value was determined as 168% and the Ki turned out to be 2.94 nM. For the same molecule, in assay [2], the “% of PrRP31” value is 113% and affinity was put at a Ki of 3.44 nM.
The matching figures for SRTHRHSMEIK([GABA-Palmitoyl])TPDINPAWYASRGIRPVGRF-NH2 [analog no. 53]: 190%, 1.26 nM, 42.5% and 9.19 nM.

B2: analog no. 40 (peptide)
peptide: Decanoyl-TPDINPAWYASRGIRPVGRF-NH2
SMILES: CCCCCCCCCC(=O)N[C@H](C(=O)N1CCC[C@H]1C(=O)N[C@@H](CC(=O)O)C(=O)N[C@H](C(=O)N[C@@H](CC(N)=O)C(=O)N1CCC[C@H]1C(=O)N[C@@H](C)C(=O)N[C@@H](Cc1c[nH]c2ccccc12)C(=O)N[C@@H](Cc1ccc(O)cc1)C(=O)N[C@@H](C)C(=O)N[C@@H](CO)C(=O)N[C@@H](CCCNC(=N)N)C(=O)NCC(=O)N[C@H](C(=O)N[C@@H](CCCNC(=N)N)C(=O)N1CCC[C@H]1C(=O)N[C@H](C(=O)NCC(=O)N[C@@H](CCCNC(=N)N)C(=O)N[C@@H](Cc1ccccc1)C(N)=O)C(C)C)[C@@H](C)CC)[C@@H](C)CC)[C@@H](C)O
B2: in assay [1], the “% of PrRP31” value is 1200% and the affinity, expressed as Ki, was 0.41 nM. In addition, in assay [2], the “% of PrRP31” value was 129% and affinity was put at a Ki of 3.02 nM.

B3: analog no. 38 (peptide)
peptide: Myristoyl-QHSMETRTPDINPAWYTGRGIRPVGRF-NH2
SMILES: CCCCCCCCCCCCCC(=O)N[C@@H](CCC(N)=O)C(=O)N[C@@H](Cc1c[nH]cn1)C(=O)N[C@@H](CO)C(=O)N[C@@H](CCSC)C(=O)N[C@@H](CCC(=O)O)C(=O)N[C@H](C(=O)N[C@@H](CCCNC(=N)N)C(=O)N[C@H](C(=O)N1CCC[C@H]1C(=O)N[C@@H](CC(=O)O)C(=O)N[C@H](C(=O)N[C@@H](CC(N)=O)C(=O)N1CCC[C@H]1C(=O)N[C@@H](C)C(=O)N[C@@H](Cc1c[nH]c2ccccc12)C(=O)N[C@@H](Cc1ccc(O)cc1)C(=O)N[C@H](C(=O)NCC(=O)N[C@@H](CCCNC(=N)N)C(=O)NCC(=O)N[C@H](C(=O)N[C@@H](CCCNC(=N)N)C(=O)N1CCC[C@H]1C(=O)N[C@H](C(=O)NCC(=O)N[C@@H](CCCNC(=N)N)C(=O)N[C@@H](Cc1ccccc1)C(N)=O)C(C)C)[C@@H](C)CC)[C@@H](C)O)[C@@H](C)CC)[C@@H](C)O)[C@@H](C)O
notes: lipidized shortened PrRP31 analog; also called 38 short
In the case of B3, in assay [1], the “% of PrRP31” value stood at 1330% and the Ki is 0.37 nM. In assay [2], the “% of PrRP31” value was 56% and the Ki came to 6.93 nM.

B4: analog no. 39 (peptide)
peptide: Octanoyl-TPDINPAWYASRGIRPVGRF-NH2
SMILES: CCCCCCCC(=O)N[C@H](C(=O)N1CCC[C@H]1C(=O)N[C@@H](CC(=O)O)C(=O)N[C@H](C(=O)N[C@@H](CC(N)=O)C(=O)N1CCC[C@H]1C(=O)N[C@@H](C)C(=O)N[C@@H](Cc1c[nH]c2ccccc12)C(=O)N[C@@H](Cc1ccc(O)cc1)C(=O)N[C@@H](C)C(=O)N[C@@H](CO)C(=O)N[C@@H](CCCNC(=N)N)C(=O)NCC(=O)N[C@H](C(=O)N[C@@H](CCCNC(=N)N)C(=O)N1CCC[C@H]1C(=O)N[C@H](C(=O)NCC(=O)N[C@@H](CCCNC(=N)N)C(=O)N[C@@H](Cc1ccccc1)C(N)=O)C(C)C)[C@@H](C)CC)[C@@H](C)CC)[C@@H](C)O
Regarding B4, in assay [1], the “% of PrRP31” value was 530% and the Ki was found to be 0.93 nM. In addition, in assay [2], the “% of PrRP31” value came to 201% and the Ki was determined as 1.94 nM.

B5: analog no. 36 (peptide)
peptide: Myristoyl-[Nle]ETRTPDINPAWYTGRGIRPVGRF-NH2
SMILES: CCCCCCCCCCCCCC(=O)N[C@@H](CCCC)C(=O)N[C@@H](CCC(=O)O)C(=O)N[C@H](C(=O)N[C@@H](CCCNC(=N)N)C(=O)N[C@H](C(=O)N1CCC[C@H]1C(=O)N[C@@H](CC(=O)O)C(=O)N[C@H](C(=O)N[C@@H](CC(N)=O)C(=O)N1CCC[C@H]1C(=O)N[C@@H](C)C(=O)N[C@@H](Cc1c[nH]c2ccccc12)C(=O)N[C@@H](Cc1ccc(O)cc1)C(=O)N[C@H](C(=O)NCC(=O)N[C@@H](CCCNC(=N)N)C(=O)NCC(=O)N[C@H](C(=O)N[C@@H](CCCNC(=N)N)C(=O)N1CCC[C@H]1C(=O)N[C@H](C(=O)NCC(=O)N[C@@H](CCCNC(=N)N)C(=O)N[C@@H](Cc1ccccc1)C(N)=O)C(C)C)[C@@H](C)CC)[C@@H](C)O)[C@@H](C)CC)[C@@H](C)O)[C@@H](C)O
notes: lipidized shortened PrRP31 analog; also called 36 short
For the molecule B5, in assay [1], the “% of PrRP31” value is 1100% and the Ki worked out at 0.45 nM. Moreover, in assay [2], the “% of PrRP31” value worked out at 71% and the inhibitory constant (Ki) was determined as 5.48 nM.

B6: analog no. 37 (peptide)
peptide: QHSMETRTPDINPAWYTGRGIRPVGRF-NH2
notes: shortened PrRP31 analog; also called 37 short
For the molecule B6, in assay [1], the “% of PrRP31” value is 189% and the affinity, expressed as Ki, was 2.61 nM. In assay [2], the “% of PrRP31” value amounted to 66% and affinity was put at a Ki of 5.92 nM.

B7: analog no. 42 (peptide)
peptide: Myristoyl-SRTHRHSMEIRTPDINPAWYASRGIRPVGRF-NH2
SMILES: CCCCCCCCCCCCCC(=O)N[C@@H](CO)C(=O)N[C@@H](CCCNC(=N)N)C(=O)N[C@H](C(=O)N[C@@H](Cc1c[nH]cn1)C(=O)N[C@@H](CCCNC(=N)N)C(=O)N[C@@H](Cc1c[nH]cn1)C(=O)N[C@@H](CO)C(=O)N[C@@H](CCSC)C(=O)N[C@@H](CCC(=O)O)C(=O)N[C@H](C(=O)N[C@@H](CCCNC(=N)N)C(=O)N[C@H](C(=O)N1CCC[C@H]1C(=O)N[C@@H](CC(=O)O)C(=O)N[C@H](C(=O)N[C@@H](CC(N)=O)C(=O)N1CCC[C@H]1C(=O)N[C@@H](C)C(=O)N[C@@H](Cc1c[nH]c2ccccc12)C(=O)N[C@@H](Cc1ccc(O)cc1)C(=O)N[C@@H](C)C(=O)N[C@@H](CO)C(=O)N[C@@H](CCCNC(=N)N)C(=O)NCC(=O)N[C@H](C(=O)N[C@@H](CCCNC(=N)N)C(=O)N1CCC[C@H]1C(=O)N[C@H](C(=O)NCC(=O)N[C@@H](CCCNC(=N)N)C(=O)N[C@@H](Cc1ccccc1)C(N)=O)C(C)C)[C@@H](C)CC)[C@@H](C)CC)[C@@H](C)O)[C@@H](C)CC)[C@@H](C)O
For B7, in assay [1], the “% of PrRP31” value turned out to be 1030% and the affinity, expressed as Ki, was 0.48 nM. Besides, the “% of PrRP31” value in assay [2] worked out at 83%.
With SETHRHSMEIKTPDINPAWYASRGIRPVGRF (K(N-POE(N-palm)) at residue 11; C-terminal amide) [analog no. 58], in assay [1], the “% of PrRP31” value came out at 575% and the Ki was found to be 0.41 nM. In assay [2], the “% of PrRP31” value was 103% and the affinity, expressed as Ki, was 3.79 nM.

B8: analog no. 54 (peptide)
peptide: SRTHRHSMEIRTPDINPAWYASRGIRPVGRF
modifications: (N-palm)γ-E at the N-terminus (palmitoyl through gamma-glutamic acid); C-terminal amide
In the case of B8, the “% of PrRP31” value amounted to 119% in assay [1] and 57% in assay [2]. The molecule also displayed a Ki in assay [1] of 0.5 nM.
The corresponding values for Palmitoyl-SRTHRHSMEIRTPDINPAWYASRGIRPVGRF-NH2 (also called analog no; 43; compound 43) [palm-PrRP31 (analog 43)] are 519%, 90% and 0.95 nM.

B9: analog no. 41 (peptide)
peptide: Lauroyl-TPDINPAWYASRGIRPVGRF-NH2
SMILES: CCCCCCCCCCCC(=O)N[C@H](C(=O)N1CCC[C@H]1C(=O)N[C@@H](CC(=O)O)C(=O)N[C@H](C(=O)N[C@@H](CC(N)=O)C(=O)N1CCC[C@H]1C(=O)N[C@@H](C)C(=O)N[C@@H](Cc1c[nH]c2ccccc12)C(=O)N[C@@H](Cc1ccc(O)cc1)C(=O)N[C@@H](C)C(=O)N[C@@H](CO)C(=O)N[C@@H](CCCNC(=N)N)C(=O)NCC(=O)N[C@H](C(=O)N[C@@H](CCCNC(=N)N)C(=O)N1CCC[C@H]1C(=O)N[C@H](C(=O)NCC(=O)N[C@@H](CCCNC(=N)N)C(=O)N[C@@H](Cc1ccccc1)C(N)=O)C(C)C)[C@@H](C)CC)[C@@H](C)CC)[C@@H](C)O
For B9, in assay [1], the “% of PrRP31” value was found to be 822% and the Ki turned out to be 0.6 nM. In assay [2], the “% of PrRP31” value came out at 161% and the Ki stood at 2.41 nM.

Values taken from US20150196651A1 (published 2015).
